Data: patent US20240299561A1, “HISTIDINE-SELECTIVE POLYMER REAGENTS” (Nektar Therapeutics, priority 2021, published 2024)
Values joined by “and” are separate entries in the source; they are usually repeats but may differ in a detail not shown here. Equal values may be shown once.

Experiments:
[1] = Hydrolytic stability of PEG conjugates with α-CBZ-histidine in PBS buffer, pH 7.4, 37° C. (HPLC)
Procedure: The reaction mixture was incubated at 37° C. and periodically analyzed by HPLC.

[2] = Reaction of histidine-linked conjugates with hydroxylamine (release of α-CBZ-His); settings: pH 7.3, 25° C., at approximately 42 hours
From the text: FIGS. 14A and 14B provide further evidence of the histidine-selectivity of exemplary polymer reagents provided herein, as illustrated by reaction of their corresponding histidine-linked conjugates with hydroxylamine. The data described below is representative of an indirect method for evaluating covalent attachment of a polymer reagent as provided herein with a histidine residue of an amino acid, peptide, polypeptide or other active histidine containing molecule, by displacement of the histidine-attached molecule resulting from reaction of the histidine-linked polymer conjugate with hydroxylamine.
More particularly, FIG. 14A is a plot illustrating reaction of a histidine conjugate prepared by reaction of Reagent 1 with model compound, α-CBZ-His, with hydroxylamine at pH 7.4, 25° C. […] Histidine conjugates such as the illustrative conjugates tested, when treated with hydroxylamine, undergo a reverse reaction such that the unconjugated histidine compound is released. […] By approximately 22 hours, 100% of the conjugate has disappeared with release of α-CBZ-His.

Compound | degree of hydrolytic stability relative to the other conjugates tested [1] | % Hydrolysis at day 10 [1] | percent of intact conjugate remaining [2]
COCCOCCOCCOCCOCCOCCOCCOCCOCCOCCOCCOCCOCCOCCOCCOCCOCCOCCOCCOCCOCCOCCOCCOCCOCCOCCOCCOCCOCCOCCOCCOCCOCCOCCOCCOCCOCCOCCOCCOCCOCCOCCOCCOCCOCCOCCOCCOCCOCCOCCOCCOCCOCCOCCOCCOCCOCCOCCOCCOCCOCCOCCOCCOCCOCCOCCOCCOCCOCCOCCOCCOCCOCCOCCOCCOCCOCCOCCOCCOCCOCCOCCOCCOCCOCCOCCOCCOCCOCCOCCOCCOCCOCCOCCOCCOCCOCCOCCOCCOCCOCCOCCOCCOCCOCCOCCOCCOCCOCCOCCOCCOCCOCCOCCN(C)C(=O)n1cnc(C[C@@H](NC(=O)OCc2ccccc2)C(=O)O)c1 [Conjugate 10, mPEG-N(CH3)—CO-α-CBZ-Histidine, 5 kDa] | highest degree of hydrolytic stability | 1.8% and 1.9% | 
mPEG-N(CH2CF3)—CO-α-CBZ-Histidine, 5 kDa [Conjugate 14] | moderate degree of hydrolytic stability |  | 
mPEG-Piperazine-CO— α-CBZ-Histidine, 5 kDa [Conjugate 11] | moderate degree of hydrolytic stability | 15.6% | 4%
